Reference: the RNAGym collection of RNA variant scans (doi:10.7554/elife.90254)

B1: LINE1-full (parent)
chain: UACGUAGGUGGUUUUCCCCUGAUAGUGCUAAGGGGGCCUGGAAGUUUGGACUGGGCAGAGCUCAACACAGCGUGGCAAAGUGGCUGUGGCUAGACUGCCUCUCUGGAUUCCUCGUCACUCAGCAGGGCAUCUCUGAGAGAAAUGCC

Variants of: B1
Assay: self-cleavage, relative activity (ratio to wild type); higher = more cleavage; in vitro, sequencing; the parent is a self-cleaving ribozyme
A59G G82A showed a self-cleavage of 0.02.
Variant A59G G86A has a self-cleavage of 0.07.
For A59G G86U, the self-cleavage was 0.03.
Variant A57G C128G has a self-cleavage of 0.55.
With A59G A79G the self-cleavage was 0.07.
Variant A59G C76A has a self-cleavage of 0.08.
For A59G C95U, the self-cleavage was 0.14.
In the case of A57U U100A, the self-cleavage is reported as 0.03.
In the case of A57U U134C, the self-cleavage is reported as 0.12.
In the case of A57U U134G, the self-cleavage is reported as 0.02.
With A57U A67C the self-cleavage was 0.07.
A57U A67G gave a self-cleavage of 0.12.
Variant A57G G82C has a self-cleavage of 1.36.
In the case of A57G G82A, the self-cleavage is reported as 1.75.
A57G G106U gave a self-cleavage of 0.58.
A57G G60A gave a self-cleavage of 0.06.
G58A A138G gave a self-cleavage of 0.04.
A57G G126U showed a self-cleavage of 0.65.
A59G C118U gave a self-cleavage of 0.02.
A57G U73G gave a self-cleavage of 0.69.
Variant A57G U73C has a self-cleavage of 1.17.
Work on G58A U81G yielded a self-cleavage of 0.12.
For G58C, the self-cleavage was 0.03.
In the case of G58A, the self-cleavage is reported as 0.05.
In the case of G58U, the self-cleavage is reported as 0.05.
With A59G A142G the self-cleavage was 0.07.
A57U C145U gave a self-cleavage of 0.08.
In the case of A57G U104A, the self-cleavage is reported as 0.3.
With A59G A136G the self-cleavage was 0.07.
With G58U A59G the self-cleavage was 0.06.
For A57U U130C, the self-cleavage was 0.13.
Variant A57U U130A has a self-cleavage of 0.15.
In the case of A59C U130C, the self-cleavage is reported as 0.8.
G58A U102C gave a self-cleavage of 0.04.
Work on A57U A59U yielded a self-cleavage of 0.07.
In the case of A57U A138G, the self-cleavage is reported as 0.15.
A59G A140G gave a self-cleavage of 0.09.
A59G A140U showed a self-cleavage of 0.09.
In the case of A57U C128U, the self-cleavage is reported as 0.11.
With G58U A117G the self-cleavage was 0.01.
Work on A57U A77G yielded a self-cleavage of 0.17.
For A59G A69G, the self-cleavage was 0.1.
A57G C71G showed a self-cleavage of 0.07.
Variant A57U G75A has a self-cleavage of 0.03.
Variant A57G U119A has a self-cleavage of 0.85.
G58A U132C showed a self-cleavage of 0.05.
Variant A57G U132A has a self-cleavage of 1.29.
For A57G U132G, the self-cleavage was 0.62.
Variant A57G U132C has a self-cleavage of 0.86.
A57U A79G gave a self-cleavage of 0.06.
A57U A79U gave a self-cleavage of 0.1.
A57G G125A gave a self-cleavage of 0.52.
For A57G G125U, the self-cleavage was 0.92.
A59C C131A gave a self-cleavage of 1.15.
Variant A57G G74A has a self-cleavage of 0.46.
G58A U87C gave a self-cleavage of 0.
In the case of A57G U108C, the self-cleavage is reported as 1.48.
Variant A59G A65G has a self-cleavage of 0.11.
A59G A117U showed a self-cleavage of 0.08.
With A57G G114A the self-cleavage was 0.84.
In the case of G58U A65U, the self-cleavage is reported as 0.04.
Variant G58A A79G has a self-cleavage of 0.06.
With G58A C110U the self-cleavage was 0.05.
With A57G G127A the self-cleavage was 0.94.
With A57G G86A the self-cleavage was 0.05.
A57G U102C gave a self-cleavage of 0.43.
G58A U96C showed a self-cleavage of 0.04.
In the case of A59C U115C, the self-cleavage is reported as 1.55.
Variant A59G A67G has a self-cleavage of 0.08.
In the case of A59G C116A, the self-cleavage is reported as 0.04.
With A59G C116U the self-cleavage was 0.07.
G58A A59G showed a self-cleavage of 0.
In the case of G58U A129G, the self-cleavage is reported as 0.05.
With G58A U130C the self-cleavage was 0.05.
With A59G A121C the self-cleavage was 0.09.
A59G A121U gave a self-cleavage of 0.08.
In the case of A59G A121G, the self-cleavage is reported as 0.23.
For A57G U96A, the self-cleavage was 0.05.
A57G U96C gave a self-cleavage of 1.37.
Variant G58A C145U has a self-cleavage of 0.04.
Work on A59C U108C yielded a self-cleavage of 1.28.
G58A A136G gave a self-cleavage of 0.05.
A57U U87C gave a self-cleavage of 0.04.
